Data from the supplement of paper PMC12042874.
± gives the uncertainty stated by the source.

Assay: amyloid nucleation score (Sup35N fusion, yeast selection) (log enrichment); library NNK2; higher = more nucleation; inactive = no reads after selection
Outline: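 Using DiMSum, nucleation scores were taken as the log enrichment of output over input reads, centred on the mode score of non-aggregating sequences. The input and output reads came from Illumina sequencing of plasmid inserts, with sequences under 100 input reads excluded. The yeast were psi-negative, expressed Sup35N fused to peptides of 20 random codons, were induced with 100 μM copper sulfate for 24 hours, and were grown 7 days at 30°C on medium lacking adenine and uracil.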

Substance	amyloid nucleation score
GLSRVDPWVYQLPSMGSHDS	0.706 ± 0.52
TFKSNLV	0.092 ± 0.17
LSKSVLKNTWGVYVI	-0.358 ± 0.79
RRGSSTIGADKESQVSLQN	-0.724 ± 1
QTGNFPIDHVQYCFFRITLS	-1.28 ± 0.62
NPDLNKT	1.36 ± 0.39
QLKYVSGNIYRLVVWVRGSP	-0.926 ± 0.37
IGGGTLYWGVDWVMY	2.96 ± 0.12
SISRVMEMTSLSIHRFIRLC	-0.918 ± 1.1
FISDVPHERLRLTFIF	-1.41 ± 0.64
VEARVHFPFWDLIEVSMYGY	-0.665 ± 0.49
FYSVNCFFFCHSIVILEKLF	3.33 ± 0.15
CHSLGVRF	3.17 ± 0.093
AKYIPHAVLKASPTVGIILV	-0.54 ± 1.1
PIGLGVCLVICLKNEVSRCW	3.37 ± 0.063
CNMGLRYTSYLI	-0.212 ± 0.34
SHFSYKECRSAVRMLQYNGA	0.719 ± 0.52
TCDWLKAFIAWF	1.53 ± 0.3
YTFWNVLC	3.59 ± 0.084
WAEPYFRCDGSSRIFSQGNA	inactive
ILRLIL	0.531 ± 0.51
LVWTD	-0.018 ± 1.1

Substance	amyloid nucleation score
YMFRDQVWYMTYKDYGHGIR	-0.249 ± 1.1
NLGCPYCISVGC	0.649 ± 0.42
GLQFSATISYERPVWGGVLR	4.64 ± 0.066
MYNENRLLSSFNSVCCMLWG	9.787 ± 0.078
HYRYEVDYLSELCIPDGMPM	-0.197 ± 0.24
GGCGLH	0.261 ± 0.4
LESMRRY	1.42 ± 0.27
GSKRCSFRGLCIIYSVSMCS	6.996 ± 0.044
VPSSNFVWVFLRLKS	-0.996 ± 0.49
FIVWVV	-0.916 ± 1.1
VYAFLYFWGFRHGVVYV	-0.099 ± 0.44
DHMRHGCGYHLWFSGLSWRF	inactive
TYCNRLRNRLMFFLYSPTTS	-0.587 ± 0.79
WNIVVSYNDLFV	-1.07 ± 0.76
IVMGLGLGASVSRGWNN	3.58 ± 0.069
VPSRS	0.172 ± 0.65
VHVCVVACFACFSANSEKGG	10.79 ± 0.042
RERLL	-0.114 ± 0.51
LTCVSAR	1.2 ± 0.16
MYKIF	inactive
FFHKDPLLQNRIVLHMQVPA	inactive
NIARNFRYRM	-1.86 ± 1.1

Substance	amyloid nucleation score
CQLLMFGSMYVHSYERGTYW	2.67 ± 0.064
WWHAAFFVAAFPNA	2.19 ± 0.17
GEQDDVPRFGYTKACEFLFA	inactive
FFQEGYNRVPS	-0.336 ± 0.62
WLWLND	-0.661 ± 1.1
FLDQWDMCP	0.619 ± 0.81
ISPMWREWTWSHNWCSFPTS	inactive
LLMQYPSLVMVAGRFLVANL	-0.082 ± 0.5
VWQVGQQRY	0.899 ± 0.17
QNQVGIRGILHHMMNSLRTQ	3.87 ± 0.055
HVTRQLCPLMSFILGR	0.565 ± 0.49
NQRIGKTGFYSRSRARLNKT	3.37 ± 0.06
TTDCG	-0.712 ± 0.33
IVNLPSYYRASRQEDVVKGR	0.75 ± 0.36
MPHPLLLSFEENLIDCLYDH	-0.693 ± 0.64
LSGLEDMSISSNDYSSDVAR	0.45 ± 0.8
SAFVSVCVSDRDRMGCYYSS	inactive
WYIRPSKTCEVSFGYPRRSW	-0.891 ± 1.1
IIRITESASRCNTDQLFLLW	inactive
NGIKFRGMVVTP	0.294 ± 0.65
REVIRGLCMYKARWIRVGVG	0.947 ± 0.21
SVYVVGFLCQGYSSLRSLVA	4.42 ± 0.089

Substance	amyloid nucleation score
ITLFDHRSSKTTLKDFAENT	-0.137 ± 1.1
YYISKKSMMMDEVRCWMTWF	-0.524 ± 0.27
CMFVIVKVCIVHGHIVSIAS	inactive
IWESSIYLNEETNDCLEKL	inactive
VFEFVVDNHLNIRLTRGGFM	4.93 ± 0.084
WLSDRASCYRESRCVEQ	-0.742 ± 0.42
IILAKLSLLTICCSIDWISR	3.07 ± 0.11
VDHQVFNHDHCGRIYVLCLG	-0.322 ± 0.31
LTCLLVRCSFVRCCVERPWS	-0.732 ± 0.54
GTTMTPFPRKCFRSVILFVG	1.1 ± 0.3
RWYILILGFRGKIIYPFRLG	0.157 ± 1
LILLNFTADSRGRRMLCCAW	-0.584 ± 0.76
IFCNTLCQIGFRRNVKASGN	-0.104 ± 0.5
SNLEFNLE	-0.747 ± 0.37
MRCDTVMKSSYASVASMGL	inactive
RVEGFRFYFEVRLGSVSRKL	-0.42 ± 0.76
IFSTHVEFRWQLILGL	-0.426 ± 0.25
LFPLI	1.24 ± 0.44
MYLLVV	0.786 ± 0.41
YRVVM	1.22 ± 0.69
RCFIDLPCCQYLVQPRVGSG	-0.26 ± 1
